Assay results from paper PMC9882595.

Target: Filamentous actin (F-actin) (rabbit) (UniProt P68135)
Experiment: co-sedimentation; high speed actin binding co-sedimentation: 10 uM Vt variant and 20 uM F-actin in actin polymerization buffer (10 mM Tris, 200 mM KCl, 10 mM imidazole, 2.5 mM MgCl2, 1 mM EGTA, 2 mM DTT, pH 7.5), room temperature 1 hr, 185,000 RCF for 60 min; fraction of Vt in the pellet by SDS-PAGE densitometry

Substance	reduction of F-actin binding relative to WT Vt [%]
Vt E1015A (domain or fragment)	2
Vt E1021A (domain or fragment)	2
